# Measured values: the supplement of paper PMC10724198
# ± gives the standard deviation of the averaged measurements.
# System: Saccharomyces cerevisiae
# Assay: protein stability index of tFT-peptide fusion (C-terminal peptide) (PSI (0-1 scale)); higher = more stable (slower turnover)
# Details: genetic background: wild type; temperature: 30 C
# Method: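 Multiplexed protein stability (MPS) profiling in S. cerevisiae. Random 12-aa peptides (tFT-X12 library) are fused to the C-terminus of a sfGFP-mCherry tandem fluorescent timer, after mCherry and a GGGS linker. Cells are FACS-sorted into 8 mCherry/sfGFP bins and deep-sequenced. The protein stability index (PSI) is the read-weighted bin average, scaled from 0 (unstable) to 1 (stable). Only peptides with >10 reads are reported; cells were grown at 30 °C in SC-His with glucose.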
# 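Also: PSI is a weighted mean of sequencing reads over stability bins, variants kept only with over 10 reads, mCherry proximal and sfGFP distal, peptide attached via GGGS linker.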
row,Sequence,protein stability index
1,ELTKNRQTVIIS,0.635 ± 0.035
2,ELTPCGNNDHAI,0.644 ± 0.0087
3,ELVISTGRLQKS,0.637 ± 0.019
4,EMTWGSIWPERH,0.731 ± 0.05
5,ENCDSAEPGTRV,0.676 ± 0.033
6,ENHPATICGFYR,0.767 ± 0.087
7,ENPSTIDLSARS,0.656 ± 0.04
8,ENVGRASDHSLS,0.679 ± 0.097
9,EPATEGDSREHW,0.708 ± 0.024
10,EPGQWRAASYGF,0.71 ± 0.024
11,EPNRIAKYYKKY,0.686 ± 0.16
12,EPPELSISALGF,0.6865 ± 0.0021
13,EPTGEPKQKKEG,0.707 ± 0.035
14,EQGLRRRVFFEV,0.644 ± 0.013
15,EQHTKNDQNNEP,0.664 ± 0.028
16,ERANMSRGNQTE,0.687 ± 0.025
17,EREKKNKKGGCQ,0.69 ± 0.018
18,ERGALNRKDTRG,0.662 ± 0.023
19,ERGEEGGRERRR,0.7 ± 0.0073
20,ERGSGSVPGGRD,0.649 ± 0.035
21,ERKEERGREGKR,0.628 ± 0.031
22,ERKEPRIQQQTL,0.67 ± 0.075
23,ERLSEYYPLIKC,0.602 ± 0.044
24,ERMVENNVKGRK,0.6811 ± 0.0027
25,ERRKGGEKGKKK,0.691 ± 0.047

row,Sequence,protein stability index
1,ERSDRLWEVSKG,0.685 ± 0.035
2,ERVQTRTTANRD,0.639 ± 0.059
3,ERWRVYERYARG,0.692 ± 0.058
4,ESDLNDLGQNLN,0.674 ± 0.058
5,ESGGGGGGGRER,0.5726 ± 0.0016
6,ESIGCINIRMRG,0.694 ± 0.013
7,ESRARCGEQAIY,0.641 ± 0.066
8,ESTNKKKEKKNR,0.661 ± 0.04
9,ESVCFRPKCVCK,0.5929 ± 0.0046
10,ESVKVTIAKVMK,0.708 ± 0.016
11,ETRSDAVVVFTK,0.694 ± 0.021
12,ETVLQVRRRVVR,0.6553 ± 0.0028
13,EVASMSCPVFLF,0.652 ± 0.03
14,EVCAGDDIRYLV,0.645 ± 0.026
15,EVCFVWSLGEVL,0.623 ± 0.019
16,EVCGSGCGCGLC,0.74 ± 0.11
17,EVDGISTRAAVC,0.63 ± 0.083
18,EVDKKYRNRKRK,0.744 ± 0.019
19,EVFVVHLLGEAS,0.574 ± 0.064
20,EVGGGVGGRRLM,0.636 ± 0.0099
21,EVGGSVGTIVGS,0.702 ± 0.11
22,EVLAVKLYSGIA,0.648 ± 0.044
23,EVLQGNHHPRPE,0.716 ± 0.019
24,EVSGRCRRPDDQ,0.679 ± 0.041
25,EVVCLGKTTLKR,0.692 ± 0.041

row,Sequence,protein stability index
1,EVVRWGCVDLWI,0.717 ± 0.051
2,EWACGRAGLKVV,0.491 ± 0.018
3,EYCIYYTQFGSF,0.65 ± 0.1
4,EYEDNRLDQHKV,0.725 ± 0.04
5,FAFVCLASILGS,0.5313 ± 0.0017
6,FAPAWQTRLGCP,0.7514 ± 0.0026
7,FAPPASPPARPP,0.672 ± 0.016
8,FAVLGGGVGGGW,0.7077 ± 0.0032
9,FCALWASFFGVS,0.715 ± 0.048
10,FCCFGGSFFSLR,0.715 ± 0.02
11,FCCSYLSRGDFL,0.702 ± 0.023
12,FCDFSPPARSFP,0.76 ± 0.072
13,FCGDFGGAYGLW,0.706 ± 0.047
14,FCGFTSLCVGDL,0.731 ± 0.039
15,FCLGMRKHSSPL,0.731 ± 0.02
16,FCVFFSGLCCWV,0.55 ± 0.022
17,FCWCARPLSWYN,0.615 ± 0.027
18,FDACPAPFGLVV,0.67033 ± 0.0004
19,FDRAVRPSCLLL,0.6892 ± 0.0062
20,FEDWMQGLGKWV,0.792 ± 0.054
21,FELTLLSPVCFS,0.579 ± 0.0089
22,FESTCSGLLYNS,0.694 ± 0.039
23,FFAGASRFSSWS,0.752 ± 0.029
24,FFCLWFLSFLRF,0.572 ± 0.01
25,FFFLPILKSPSR,0.714 ± 0.058

row,Sequence,protein stability index
1,FFGNGSGPWVLV,0.6597 ± 0.0018
2,FFGWYFCFSGVS,0.598 ± 0.023
3,FFIGFGGVAGGG,0.695 ± 0.01
4,FFLGGGVGLVLV,0.528 ± 0.053
5,FFLPLAYSSGSN,0.659 ± 0.043
6,FFLPSLFSVLSF,0.53 ± 0.04
7,FFLRLCTPPYFH,0.651 ± 0.0097
8,FFPITAWSGWDG,0.669 ± 0.093
9,FFPPAPLTSLLP,0.697 ± 0.057
10,FFPPFLFSLFRT,0.5621 ± 0.0007
11,FFQSSLLFCPWR,0.712 ± 0.011
12,FFRWDSKHDILV,0.732 ± 0.064
13,FFRYWLRWGWGV,0.695 ± 0.039
14,FFSFVVPCFFFC,0.513 ± 0.022
15,FFSSSLMRLGCF,0.6343 ± 0.00098
16,FFSWFGCSCYAR,0.779 ± 0.023
17,FFTVRLRGGRDC,0.649 ± 0.024
18,FFVGAGATEGLG,0.735 ± 0.021
19,FFVGAGVTEGLG,0.692 ± 0.033
20,FGFGYAVSFLVG,0.6 ± 0.081
21,FGPDFCVRSHLS,0.719 ± 0.03
22,FGRGLCPHRLWI,0.74 ± 0.039
23,FGRSHPFWVVDV,0.697 ± 0.025
24,FGSRTFVTIAAG,0.57 ± 0.056
25,FGVSLWPGFLYL,0.587 ± 0.0065

row,Sequence,protein stability index
1,FGVTLGYFSSVE,0.656 ± 0.017
2,FGVVLAGAGWGG,0.675 ± 0.095
3,FGVVLVGAGWGG,0.67 ± 0.035
4,FGWVGYGCGVWW,0.741 ± 0.12
5,FHFLNLLIPFPR,0.737 ± 0.061
6,FHVVPLTSPPPV,0.755 ± 0.03
7,FHYSRSCVLEQL,0.698 ± 0.074
8,FICAGPLGVCSC,0.498 ± 0.011
9,FICGFRYHTVYR,0.652 ± 0.043
10,FIKRINSYTGWI,0.663 ± 0.062
11,FIQFGYVSSVIQ,0.722 ± 0.031
12,FISKHHPLVPPS,0.719 ± 0.041
13,FKQLKKKKKNRR,0.741 ± 0.091
14,FLARPIACPRRV,0.701 ± 0.008
15,FLCNSRSICGDG,0.6774 ± 0.0033
16,FLCRLILFSTPP,0.602 ± 0.021
17,FLFASYFLENQR,0.766 ± 0.13
18,FLFRLWGLLAEG,0.583 ± 0.082
19,FLGCFIPLPCTP,0.645 ± 0.012
20,FLGFPVVGVFGS,0.735 ± 0.031
21,FLGRFLTGALWV,0.758 ± 0.12
22,FLLCFLRIPSCP,0.5218 ± 0.0042
23,FLLCISGFSSFL,0.592 ± 0.0077
24,FLLDRSSADHSL,0.684 ± 0.1
25,FLLFSSFYFCFP,0.497 ± 0.062

row,Sequence,protein stability index
1,FLLPPAPRPAPP,0.76 ± 0.086
2,FLPFFFCLPSSL,0.628 ± 0.014
3,FLPRLSASSSLC,0.728 ± 0.015
4,FLQRSLTNMNSL,0.671 ± 0.00095
5,FLRGLCGKMSKG,0.673 ± 0.0081
6,FLRKHVLRLRPP,0.594 ± 0.03
7,FLSCLLERSWSL,0.79 ± 0.044
8,FLSLFCFFLPFF,0.646 ± 0.02
9,FLSPSLLSLSSP,0.681 ± 0.025
10,FLSSWFCYSSDL,0.735 ± 0.07
11,FLSWGSGVFGLL,0.671 ± 0.056
12,FLSWTAYRPSST,0.682 ± 0.0075
13,FLVWGLGWLCCV,0.594 ± 0.025
14,FNISVGPATRRV,0.665 ± 0.045
15,FNPPPLLLPPPP,0.639 ± 0.013
16,FPILLASRPSSP,0.662 ± 0.046
17,FPISPSQSQSLP,0.724 ± 0.076
18,FPIWYPSSSFPR,0.711 ± 0.013
19,FPLPHPCPPPPP,0.694 ± 0.017
20,FPLSPPAPPLTP,0.702 ± 0.013
21,FPPAHPVHFSPP,0.717 ± 0.047
22,FPPCCSSFFGFF,0.752 ± 0.024
23,FPPCSFLARPFL,0.669 ± 0.019
24,FPPLLFSSPPLP,0.683 ± 0.018
25,FPPLSHLPPGLY,0.758 ± 0.075

row,Sequence,protein stability index
1,FPPPPPPLPPGS,0.687 ± 0.073
2,FPPPPPSFSQPL,0.741 ± 0.034
3,FPPPPPSRSRPV,0.708 ± 0.032
4,FPPPRYPRRPTA,0.682 ± 0.018
5,FPRRPHVESHIR,0.7359 ± 0.0042
6,FPSSALPPRLSL,0.7409 ± 0.0072
7,FPSSSHLPWLLI,0.633 ± 0.014
8,FPTIGLSCSFPH,0.676 ± 0.042
9,FQGRLILCIETR,0.5323 ± 0.00074
10,FQWVLDGYRCWD,0.694 ± 0.098
11,FRAPYWCSRVFG,0.715 ± 0.095
12,FRGALFLLSSRV,0.571
13,FRGGCDRIRYRM,0.696 ± 0.0089
14,FRGGRTEWEKNV,0.719 ± 0.058
15,FRGSVRLIGFAQ,0.666 ± 0.0081
16,FRHPGSAGPPVA,0.713 ± 0.011
17,FRLLHLPALSCP,0.565 ± 0.013
18,FRLLSTINSCCV,0.612 ± 0.036
19,FRLYALAPHSPG,0.67 ± 0.027
20,FRPPFRSAPLSP,0.679 ± 0.051
21,FRQWCTEVYIEV,0.531 ± 0.031
22,FRRSLILPLPPT,0.6814 ± 0.0037
23,FRRYGKEAVDKD,0.696 ± 0.011
24,FRSFALFGNSFL,0.704 ± 0.0053
25,FRYSSLPRPLVF,0.5893 ± 0.0029

row,Sequence,protein stability index
1,FSGISVMCLFSG,0.687 ± 0.12
2,FSHLYCSLVTTD,0.681 ± 0.067
3,FSLFGVGQITFL,0.683 ± 0.056
4,FSLFSSPPSLFC,0.672 ± 0.03
5,FSLPLCAITGPQ,0.702 ± 0.056
6,FSPALPPSHSPP,0.676 ± 0.057
7,FSPAPPLLLHPS,0.714 ± 0.043
8,FSPASCPILPPL,0.672 ± 0.014
9,FSQNFVSTGFRL,0.702 ± 0.028
10,FSRPPPFPLFSS,0.69 ± 0.03
11,FSSCFLVSPSLF,0.648 ± 0.016
12,FSSFVLLFFSFP,0.541 ± 0.011
13,FSSPLLLFHLPV,0.663 ± 0.04
14,FSSSASNSSWPY,0.721 ± 0.016
15,FSTLLVSPLQAS,0.641 ± 0.022
16,FSTVIDFLAYLF,0.636 ± 0.036
17,FSWDRIKQCSSV,0.7094 ± 0.0035
18,FTFARPVCLFFG,0.587 ± 0.003
19,FTHVKEVNTGNR,0.672 ± 0.053
20,FTLCPARALSLC,0.552 ± 0.024
21,FTLRFGYISDLD,0.736 ± 0.21
